This is an account of results in patent publication US20240109955A1.

Residue numbers refer to the chain shown, from its start.

Holding throughout (assay): cell-based or functional assay
Experiment [1] addresses SARS-CoV-2 spike protein, Omicron variant BA.2.75.2 (SARS-CoV-2).
Experiment [2] concerns the target SARS-CoV-2 spike protein, Omicron variant BQ.1 (SARS-CoV-2).
For experiment [3], the target named is SARS-CoV-2 spike protein, Omicron variant BA.4/5 (SARS-CoV-2).
Experiment [4] concerns the target SARS-CoV-2 spike protein, Omicron variant BQ.1.1 (SARS-CoV-2).
For experiment [5], the target named is SARS-CoV-2 spike protein, Omicron variant XBB (SARS-CoV-2).
Experiment [6] has as its target SARS-CoV-2 Delta variant spike protein (SARS-CoV-2).
Experiment [7] has as its target SARS-CoV-2 Omicron variant B.1.1.529 spike protein (SARS-CoV-2).
Experiment [8] addresses SARS-CoV-2 Omicron variant XBB spike protein (SARS-CoV-2).
For experiment [9], the target named is SARS-CoV-2 Omicron variant BA.2.75.2 spike protein (SARS-CoV-2).
For experiment [10], the target named is SARS-CoV-2 Omicron variant BQ.1 spike protein (SARS-CoV-2).
For experiment [11], the target named is SARS-CoV-2 Omicron variant BQ.1.1 spike protein (SARS-CoV-2).
Experiment [12] deals with SARS-CoV-2 Omicron variant BA.4/5 spike protein (SARS-CoV-2).

B1: MX1070 (protein)
chain 1: QTVVTQEPSFSVSPGGTVTLTCGLSSGSVSTAYFPSWYQQTPGQAPRTLIYGTNTRSSGVPDRFSGSILGNKAALTITGAQADDESDYYCVLYMGRGIVVFGGGTKLTVLGGSSGEIVLTQSPGTLSLSPGETATLSCRASQSFSSDLAWYQQKPGQAPRLLIYGASSRATGIPDRFSGSGSGTDFTLTISRLEPADFAVYYCQQYGSSPPVTFGGGTKVEIKGGGGSGGSGSGGGGSASGSGEVQLVESGGGLIQPGGSLRLSCAASGVIVSYNYMNWVRQAPGKGLEWVSVIYSGGSTFYADSVRGRFTISRDNSKNTLYLQMNSLRAEDTAVYYCARDLGPAGAFDIWGLGTMVTVSSGGSSGQVQLVESGGGVVQPGRSLRLSCAASGFTLSSYGMHWVRQAPGKGLEWVAVISYDGSNKYYVDSVKGRFTISRDNSKNTLYLQMNSLRAEDTAVYYCRWAYWELLPDYYYGMDVWGQGTTVTVSSASGGSGDKTHTCPPCPAPELLGGPSVFLFPPKPKDTLMISRTPEVTCVVVDVSHEDPEVKFNWYVDGVEVHNAKTKPREEQYNSYVVSVLTVLHQDWLNGKEYKCKVSNKALPAPIEKTISKAKGQPREPQVYTLPPCRDELTKNQVSLWCLVKGFYPSDIAVEWESNGQPENNYKTTPPVLDSDGSFFKKLTVDKSRWQQGNVFSCSVLHEALHSHYTQKSLSLSPG
chain 2: DTVMTQSPLSLPVTPGEPASISCRSSQSLLNSNGYNYLDWYVQKPGQSPQLLIYLGSNRASGVPDRFSGSGSGTDFTLKISRVEAEDVGVYYCMQPLQTPLFTFGPGTKVEIKGGSSGEIVLTQSPGTLSLSPGETATLSCRASQSFSSDLAWYQQKPGQAPRLLIYGASSRATGIPDRFSGSGSGTDFTLTISRLEPADFAVYYCQQYGSSPPVTFGGGTKVEIKGGGGSGGSGSGGGGSASGSGEVQLVESGGGLIQPGGSLRLSCAASGVIVSYNYMNWVRQAPGKGLEWVSVIYSGGSTFYADSVRGRFTISRDNSKNTLYLQMNSLRAEDTAVYYCARDLGPAGAFDIWGLGTMVTVSSGGSSGQVTLRESGPALVKPTQTLTLTCTFSGFSLSTRGVCVSWIRQPPGKALEWLAFIDWDDDKYYNTSLKTRLTISKDTSKNQVVLTMTNVHPVDTATYYCARISSHHGSSWCTTFDYWGQGALVTVSAASGGSGDKTHTCPPCPAPELLGGPSVFLFPPKPKDTLMISRTPEVTCVVVDVSHEDPEVKFNWYVDGVEVHNAKTKPREEQYNSYVVSVLTVLHQDWLNGKEYKCKVSNKALPAPIEKTISKAKGQPREPQVCTLPPSRDELTKNQVSLSCAVKGFYPSDIAVEWESNGQPENNYKTTPPVLDSDGSFFLVSKLTVDKSRWQQGNVFSCSVLHEALHSHYTQKSLSLSPG
With B1, the IC50, pseudovirus neutralization in experiment [1] stood at 2.4 ng/mL; in [2] it was 4.64 ng/mL; in experiment [3] it was 2.49 ng/mL; in experiment [4], 4.06 ng/mL; in experiment [5], 2.9 ng/mL. In addition, the IC80, pseudovirus neutralization in [1] turned out to be 4.16 ng/mL; in experiment [2] it was 9.16 ng/mL; in experiment [3], 3.58 ng/mL; in [4] it was 11 ng/mL; in experiment [5], 9.71 ng/mL.

B2: MX1041 (bispecific antibody)
chain: B1 chain 1 with C628S, W640T
As for B2, the IC50, pseudovirus neutralization in experiment [6] was 29.1 ng/mL; in experiment [7] it was 4.14 ng/mL. The figures for the IC80, pseudovirus neutralization in [6] and in experiment [7] were 48.5 ng/mL and 8.81 ng/mL, respectively.

B3: MX1028 (bispecific antibody)
chain 1: EIVMTQSPAILSVSPGERATLSCRASQSVAINLAWYQQKPGQAPRLLIYAASSRATGIPGRFSGSGSETNFTLTISSLQSGDFAVYYCQQYITWPPSYTFGQGTKLEIKGGSSGDTVMTQSPLSLPVTPGEPASISCRSSQSLLNSNGYNYLDWYVQKPGQSPQLLIYLGSNRASGVPDRFSGSGSGTDFTLKISRVEAEDVGVYYCMQPLQTPLFTFGPGTKVEIKGGGGSGGSGSGGGGSASGSGQVTLRESGPALVKPTQTLTLTCTFSGFSLSTRGVCVSWIRQPPGKALEWLAFIDWDDDKYYNTSLKTRLTISKDTSKNQVVLTMTNVHPVDTATYYCARISSHHGSSWCTTFDYWGQGALVTVSAGGSSGEVQLVESGGALIQPGGSLRLSCAASGIIVSANYMSWVRQAPGKGLEWVSVIYSGGSTFYADSVKGRFTISRDNSKNTLYLEMNSLRAEDTAVYYCARDAPILGVSDWGQGTLVTVSSASGGSGDKTHTCPPCPAPELLGGPSVFLFPPKPKDTLMISRTPEVTCVVVDVSHEDPEVKFNWYVDGVEVHNAKTKPREEQYNSYVVSVLTVLHQDWLNGKEYKCKVSNKALPAPIEKTISKAKGQPREPQVYTLPPCRDELTKNQVSLWCLVKGFYPSDIAVEWESNGQPENNYKTTPPVLDSDGSFFKKLTVDKSRWQQGNVFSCSVLHEALHSHYTQKSLSLSPG
chain 2: DTVMTQSPLSLPVTPGEPASISCRSSQSLLNSNGYNYLDWYVQKPGQSPQLLIYLGSNRASGVPDRFSGSGSGTDFTLKISRVEAEDVGVYYCMQPLQTPLFTFGPGTKVEIKGGSSGEIVMTQSPAILSVSPGERATLSCRASQSVAINLAWYQQKPGQAPRLLIYAASSRATGIPGRFSGSGSETNFTLTISSLQSGDFAVYYCQQYITWPPSYTFGQGTKLEIKGGGGSGGSGSGGGGSASGSGEVQLVESGGALIQPGGSLRLSCAASGIIVSANYMSWVRQAPGKGLEWVSVIYSGGSTFYADSVKGRFTISRDNSKNTLYLEMNSLRAEDTAVYYCARDAPILGVSDWGQGTLVTVSSGGSSGQVTLRESGPALVKPTQTLTLTCTFSGFSLSTRGVCVSWIRQPPGKALEWLAFIDWDDDKYYNTSLKTRLTISKDTSKNQVVLTMTNVHPVDTATYYCARISSHHGSSWCTTFDYWGQGALVTVSAASGGSGDKTHTCPPCPAPELLGGPSVFLFPPKPKDTLMISRTPEVTCVVVDVSHEDPEVKFNWYVDGVEVHNAKTKPREEQYNSYVVSVLTVLHQDWLNGKEYKCKVSNKALPAPIEKTISKAKGQPREPQVCTLPPSRDELTKNQVSLSCAVKGFYPSDIAVEWESNGQPENNYKTTPPVLDSDGSFFLVSKLTVDKSRWQQGNVFSCSVLHEALHSHYTQKSLSLSPG
With B3, the IC50, pseudovirus neutralization in experiment [8] was found to be 6.77 ng/mL; in experiment [9], 2.43 ng/mL; in experiment [10], 10.5 ng/mL; in [11] it was 4.2 ng/mL; in experiment [12], 1.81 ng/mL. In addition, the IC80, pseudovirus neutralization is 16.1 ng/mL in experiment [8]; 7.4 ng/mL in experiment [9]; 25.5 ng/mL in [10]; 14.4 ng/mL in experiment [11]; 3.73 ng/mL in [12].

B4: E8 + B8 (protein)
VH 1: QVTLRESGPALVKPTQTLTLTCTFSGFSLSTRGVCVSWIRQPPGKALEWLAFIDWDDDKYYNTSLKTRLTISKDTSKNQVVLTMTNVHPVDTATYYCARISSHHGSSWCTTFDYWGQGALVTVSA
VL 1: DTVMTQSPLSLPVTPGEPASISCRSSQSLLNSNGYNYLDWYVQKPGQSPQLLIYLGSNRASGVPDRFSGSGSGTDFTLKISRVEAEDVGVYYCMQPLQTPLFTFGPGTKVEIK
VH 2: EVQLVESGGALIQPGGSLRLSCAASGIIVSANYMSWVRQAPGKGLEWVSVIYSGGSTFYADSVKGRFTISRDNSKNTLYLEMNSLRAEDTAVYYCARDAPILGVSDWGQGTLVTVSS
VL 2: EIVMTQSPAILSVSPGERATLSCRASQSVAINLAWYQQKPGQAPRLLIYAASSRATGIPGRFSGSGSETNFTLTISSLQSGDFAVYYCQQYITWPPSYTFGQGTKLEIK
Regarding B4, the values for the IC50, pseudovirus neutralization in experiment [8], in [10] and in experiment [11] were 9.96 ng/mL, 11 ng/mL and 9.55 ng/mL, respectively. Besides, the IC80, pseudovirus neutralization was 18.1 ng/mL in experiment [8], 30.5 ng/mL in [10] and 13.2 ng/mL in experiment [11].
